The target of one assay is T1, Human CEACAM5 (E398) (human, UniProt P06731 35-685, limits assumed).
T1 construct: also called hCEACAM5
T1 sequence: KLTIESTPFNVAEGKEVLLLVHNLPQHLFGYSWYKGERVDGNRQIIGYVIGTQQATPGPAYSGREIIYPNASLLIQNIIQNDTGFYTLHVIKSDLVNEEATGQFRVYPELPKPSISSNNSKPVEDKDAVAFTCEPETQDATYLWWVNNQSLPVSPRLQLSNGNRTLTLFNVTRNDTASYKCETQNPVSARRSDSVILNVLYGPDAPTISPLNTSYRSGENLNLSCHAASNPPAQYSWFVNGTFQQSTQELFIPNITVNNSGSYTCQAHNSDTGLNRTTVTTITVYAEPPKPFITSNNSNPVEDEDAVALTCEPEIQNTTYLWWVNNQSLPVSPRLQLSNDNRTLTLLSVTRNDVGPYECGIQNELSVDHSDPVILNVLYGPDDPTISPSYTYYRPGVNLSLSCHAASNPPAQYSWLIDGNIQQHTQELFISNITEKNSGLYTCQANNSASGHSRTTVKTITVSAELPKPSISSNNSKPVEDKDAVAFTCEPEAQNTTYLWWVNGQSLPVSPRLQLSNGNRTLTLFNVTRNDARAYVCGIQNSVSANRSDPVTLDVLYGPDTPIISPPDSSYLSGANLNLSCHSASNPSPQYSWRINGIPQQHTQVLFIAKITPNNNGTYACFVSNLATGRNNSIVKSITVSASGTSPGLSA
Kind of assay: SPR, 37C, pH 7.4.

Assay [1] has as its target T2, Human CEACAM5 I80V V83A I112V I113T (human, UniProt P06731 35-685, limits assumed).
T2 chain: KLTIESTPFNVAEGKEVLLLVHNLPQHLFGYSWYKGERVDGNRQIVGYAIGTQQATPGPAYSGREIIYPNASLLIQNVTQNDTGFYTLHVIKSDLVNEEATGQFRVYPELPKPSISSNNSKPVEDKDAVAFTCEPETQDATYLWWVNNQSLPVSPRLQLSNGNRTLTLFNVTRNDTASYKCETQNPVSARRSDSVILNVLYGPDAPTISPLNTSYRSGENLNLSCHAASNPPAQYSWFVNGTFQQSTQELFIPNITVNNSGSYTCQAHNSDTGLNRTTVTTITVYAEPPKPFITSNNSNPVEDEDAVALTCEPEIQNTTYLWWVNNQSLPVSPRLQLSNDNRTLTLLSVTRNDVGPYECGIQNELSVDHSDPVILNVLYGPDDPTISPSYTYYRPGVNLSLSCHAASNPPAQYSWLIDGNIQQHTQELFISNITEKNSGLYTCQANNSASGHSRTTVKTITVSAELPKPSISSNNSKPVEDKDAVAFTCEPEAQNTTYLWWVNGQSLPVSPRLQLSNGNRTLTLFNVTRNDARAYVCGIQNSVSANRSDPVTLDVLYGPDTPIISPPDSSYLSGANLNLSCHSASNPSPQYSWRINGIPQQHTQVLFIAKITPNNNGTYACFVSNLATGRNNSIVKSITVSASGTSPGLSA
The assay can be described thus: SPR, 37C, pH 7.4.

In the next assay the target is T3, Human CEACAM5 V83A (human, UniProt P06731 35-685, limits assumed).
T3 sequence: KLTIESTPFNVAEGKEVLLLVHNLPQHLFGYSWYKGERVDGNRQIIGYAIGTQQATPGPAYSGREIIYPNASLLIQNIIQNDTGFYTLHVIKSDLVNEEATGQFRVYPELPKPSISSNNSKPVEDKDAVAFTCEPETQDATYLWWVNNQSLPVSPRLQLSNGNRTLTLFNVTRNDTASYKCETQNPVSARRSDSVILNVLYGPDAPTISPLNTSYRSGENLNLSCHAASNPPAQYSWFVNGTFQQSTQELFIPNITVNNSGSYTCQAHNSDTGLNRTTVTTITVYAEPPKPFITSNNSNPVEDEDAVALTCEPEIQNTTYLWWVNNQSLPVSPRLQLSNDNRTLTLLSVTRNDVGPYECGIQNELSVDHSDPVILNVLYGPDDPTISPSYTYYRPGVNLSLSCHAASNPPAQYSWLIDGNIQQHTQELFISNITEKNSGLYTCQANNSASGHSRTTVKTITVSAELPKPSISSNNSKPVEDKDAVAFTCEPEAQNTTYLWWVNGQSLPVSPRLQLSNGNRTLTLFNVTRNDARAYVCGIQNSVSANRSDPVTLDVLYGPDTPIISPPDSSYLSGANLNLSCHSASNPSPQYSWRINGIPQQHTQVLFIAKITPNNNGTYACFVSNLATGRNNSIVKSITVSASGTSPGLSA
The assay can be described thus: SPR, 37C, pH 7.4.

The target in a further assay is T4, Human CEACAM5 I112V (human, UniProt P06731 35-685, limits assumed).
T4 sequence: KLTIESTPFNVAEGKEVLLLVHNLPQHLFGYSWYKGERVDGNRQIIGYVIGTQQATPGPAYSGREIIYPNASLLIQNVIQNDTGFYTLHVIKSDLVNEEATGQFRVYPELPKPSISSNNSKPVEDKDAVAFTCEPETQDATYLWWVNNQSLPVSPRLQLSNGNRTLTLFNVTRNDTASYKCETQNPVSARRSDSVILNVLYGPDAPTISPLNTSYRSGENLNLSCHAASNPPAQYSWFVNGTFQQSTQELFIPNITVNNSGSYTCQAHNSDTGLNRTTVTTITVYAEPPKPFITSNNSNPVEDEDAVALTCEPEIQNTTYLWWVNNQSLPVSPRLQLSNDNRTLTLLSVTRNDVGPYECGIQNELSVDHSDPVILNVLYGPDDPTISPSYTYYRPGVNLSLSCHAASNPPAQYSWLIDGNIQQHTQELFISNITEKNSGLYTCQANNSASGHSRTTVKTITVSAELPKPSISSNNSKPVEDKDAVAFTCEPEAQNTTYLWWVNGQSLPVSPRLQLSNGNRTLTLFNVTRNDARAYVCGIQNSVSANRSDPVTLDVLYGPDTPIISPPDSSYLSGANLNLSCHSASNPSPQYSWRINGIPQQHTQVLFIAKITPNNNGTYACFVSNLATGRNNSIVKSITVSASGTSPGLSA
Kind of assay: SPR, 37C, pH 7.4; reference E398.

B1: AB0466 F3' CEACAM5 TriNKET (bispecific antibody, human IgG1, kappa)
chain: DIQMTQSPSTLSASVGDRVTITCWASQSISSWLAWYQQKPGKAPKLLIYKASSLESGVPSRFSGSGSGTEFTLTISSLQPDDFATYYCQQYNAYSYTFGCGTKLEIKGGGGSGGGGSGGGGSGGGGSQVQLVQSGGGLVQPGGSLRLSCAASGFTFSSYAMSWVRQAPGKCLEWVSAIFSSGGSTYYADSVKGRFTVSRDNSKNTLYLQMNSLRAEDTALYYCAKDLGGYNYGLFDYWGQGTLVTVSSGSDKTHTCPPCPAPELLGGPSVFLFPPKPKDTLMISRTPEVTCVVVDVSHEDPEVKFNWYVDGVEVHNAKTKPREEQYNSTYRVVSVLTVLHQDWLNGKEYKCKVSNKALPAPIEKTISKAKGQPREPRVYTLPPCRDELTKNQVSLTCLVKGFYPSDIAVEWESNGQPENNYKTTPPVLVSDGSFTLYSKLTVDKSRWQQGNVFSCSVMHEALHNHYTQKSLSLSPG
heavy: EVQLVESGGGLVKPGGSLRLSCAASGFTFSSYSMNWVRQAPGKGLEWVSSISSSSSYIYYADSVKGRFTISRDNAKNSLYLQMNSLRAEDTAVYYCARGAPIGAAAGWFDPWGQGTLVTVSSASTKGPSVFPLAPSSKSTSGGTAALGCLVKDYFPEPVTVSWNSGALTSGVHTFPAVLQSSGLYSLSSVVTVPSSSLGTQTYICNVNHKPSNTKVDKKVEPKSCDKTHTCPPCPAPELLGGPSVFLFPPKPKDTLMISRTPEVTCVVVDVSHEDPEVKFNWYVDGVEVHNAKTKPREEQYNSTYRVVSVLTVLHQDWLNGKEYKCKVSNKALPAPIEKTISKAKGQPREPQVCTLPPSRDELTENQVSLTCLVKGFYPSDIAVEWESNGQPENNYKTTPPVLDSDGSFFLYSWLTVDKSRWQQGNVFSCSVMHEALHNHYTQKSLSLSPG
light: DIQMTQSPSSVSASVGDRVTITCRASQGISSWLAWYQQKPGKAPKLLIYAASSLQSGVPSRFSGSGSGTDFTLTISSLQPEDFATYYCQQGVSFPRTFGGGTKVEIKRTVAAPSVFIFPPSDEQLKSGTASVVCLLNNFYPREAKVQWKVDNALQSGNSQESVTEQDSKDSTYSLSSTLTLSKADYEKHKVYACEVTHQGLSSPVTKSFNRGEC
Regarding B1, the figures for the Kd (in the assay with Human CEACAM5 (E398); in assay [1]; with Human CEACAM5 V83A) were 7.2 nM, 61 nM and 66 nM, respectively. The kon with Human CEACAM5 (E398) was found to be 190000 M⁻¹ s⁻¹; in assay [1], 590000 M⁻¹ s⁻¹; with Human CEACAM5 V83A it was 140000 M⁻¹ s⁻¹. The “KD/KD(Ref)” value with Human CEACAM5 I112V stood at 1.6 fold.

B2: AB0621 F3' CEACAM5 TriNKET (bispecific antibody, human IgG1, kappa)
chain: DIVMTQSPDSLAVSLGERATINCKSSHSLLYGNFQNNYLAWYQQKPGQPPKLLIYWASTRESGVPDRFSGSGSGTDFTLTISSLQAEDVAVYYCQQYYSYPYTFGCGTKLEIKGGGGSGGGGSGGGGSGGGGSQVQLVQSGAEVKKPGASVKVSCKASGYTFTAYTIHWVRQAPGQCLEWMGYINPSSGYTEYNQKFKDRTTLTADTSISTAYMELSRLRSDDTAVYYCTREGGLLWFDYWGQGTLVTVSSGSDKTHTCPPCPAPELLGGPSVFLFPPKPKDTLMISRTPEVTCVVVDVSHEDPEVKFNWYVDGVEVHNAKTKPREEQYNSTYRVVSVLTVLHQDWLNGKEYKCKVSNKALPAPIEKTISKAKGQPREPRVYTLPPCRDELTKNQVSLTCLVKGFYPSDIAVEWESNGQPENNYKTTPPVLVSDGSFTLYSKLTVDKSRWQQGNVFSCSVMHEALHNHYTQKSLSLSPG
heavy: EVQLVESGGGLVKPGGSLRLSCAASGFTFSSYSMNWVRQAPGKGLEWVSSISSSSSYIYYADSVKGRFTISRDNAKNSLYLQMNSLRAEDTAVYYCARGAPIGAAAGWFDPWGQGTLVTVSSASTKGPSVFPLAPSSKSTSGGTAALGCLVKDYFPEPVTVSWNSGALTSGVHTFPAVLQSSGLYSLSSVVTVPSSSLGTQTYICNVNHKPSNTKVDKKVEPKSCDKTHTCPPCPAPELLGGPSVFLFPPKPKDTLMISRTPEVTCVVVDVSHEDPEVKFNWYVDGVEVHNAKTKPREEQYNSTYRVVSVLTVLHQDWLNGKEYKCKVSNKALPAPIEKTISKAKGQPREPQVCTLPPSRDELTENQVSLTCLVKGFYPSDIAVEWESNGQPENNYKTTPPVLDSDGSFFLYSWLTVDKSRWQQGNVFSCSVMHEALHNHYTQKSLSLSPG
light: DIQMTQSPSSVSASVGDRVTITCRASQGISSWLAWYQQKPGKAPKLLIYAASSLQSGVPSRFSGSGSGTDFTLTISSLQPEDFATYYCQQGVSFPRTFGGGTKVEIKRTVAAPSVFIFPPSDEQLKSGTASVVCLLNNFYPREAKVQWKVDNALQSGNSQESVTEQDSKDSTYSLSSTLTLSKADYEKHKVYACEVTHQGLSSPVTKSFNRGEC
As for B2, the values for the Kd (with Human CEACAM5 (E398); in assay [1]; with Human CEACAM5 V83A) were 17 nM, 22 nM and 34 nM, respectively. The results for the kon (in the assay with Human CEACAM5 (E398); in assay [1]; with Human CEACAM5 V83A) were 100000 M⁻¹ s⁻¹, 64000 M⁻¹ s⁻¹ and 44000 M⁻¹ s⁻¹, respectively. Besides, the “KD/KD(Ref)” value with Human CEACAM5 I112V came out at 2.3 fold.

B3: AB0411 F3' CEACAM5 TriNKET (bispecific antibody, human IgG1, kappa)
chain: DIQLTQSPATLSVSPGERATLSCRASQSVSSSYLAWYQQKPGQAPRLLIYGASSRATGIPDRFSGSGSGTDFTLTISRLEPEDFAVYYCQQYNNWPLTFGCGTKVEIKGGGGSGGGGSGGGGSGGGGSQVQLVQSGGGLVQPGGSLRLSCAASGFTFTSYAMSWVRQAPGKCLEWVSAISGTGDSTFYADSVKGRFTFSRDNSKNTLYLQMNSLRAEDTAVYYCAKDLGWLQYGLFDYWGQGTLVTVSSGSDKTHTCPPCPAPELLGGPSVFLFPPKPKDTLMISRTPEVTCVVVDVSHEDPEVKFNWYVDGVEVHNAKTKPREEQYNSTYRVVSVLTVLHQDWLNGKEYKCKVSNKALPAPIEKTISKAKGQPREPRVYTLPPCRDELTKNQVSLTCLVKGFYPSDIAVEWESNGQPENNYKTTPPVLVSDGSFTLYSKLTVDKSRWQQGNVFSCSVMHEALHNHYTQKSLSLSPG
heavy: EVQLVESGGGLVKPGGSLRLSCAASGFTFSSYSMNWVRQAPGKGLEWVSSISSSSSYIYYADSVKGRFTISRDNAKNSLYLQMNSLRAEDTAVYYCARGAPIGAAAGWFDPWGQGTLVTVSSASTKGPSVFPLAPSSKSTSGGTAALGCLVKDYFPEPVTVSWNSGALTSGVHTFPAVLQSSGLYSLSSVVTVPSSSLGTQTYICNVNHKPSNTKVDKKVEPKSCDKTHTCPPCPAPELLGGPSVFLFPPKPKDTLMISRTPEVTCVVVDVSHEDPEVKFNWYVDGVEVHNAKTKPREEQYNSTYRVVSVLTVLHQDWLNGKEYKCKVSNKALPAPIEKTISKAKGQPREPQVCTLPPSRDELTENQVSLTCLVKGFYPSDIAVEWESNGQPENNYKTTPPVLDSDGSFFLYSWLTVDKSRWQQGNVFSCSVMHEALHNHYTQKSLSLSPG
light: DIQMTQSPSSVSASVGDRVTITCRASQGISSWLAWYQQKPGKAPKLLIYAASSLQSGVPSRFSGSGSGTDFTLTISSLQPEDFATYYCQQGVSFPRTFGGGTKVEIKRTVAAPSVFIFPPSDEQLKSGTASVVCLLNNFYPREAKVQWKVDNALQSGNSQESVTEQDSKDSTYSLSSTLTLSKADYEKHKVYACEVTHQGLSSPVTKSFNRGEC
As to B3, the Kd was 1.7 nM with Human CEACAM5 (E398), 6.4 nM in assay [1] and 8.2 nM with Human CEACAM5 V83A. In addition, the association rate constant (kon) stood at 270000 M⁻¹ s⁻¹ with Human CEACAM5 (E398), 260000 M⁻¹ s⁻¹ in assay [1] and 180000 M⁻¹ s⁻¹ with Human CEACAM5 V83A. Moreover, the “KD/KD(Ref)” value with Human CEACAM5 I112V was 1.2 fold.

The values above are taken from US20240124607A1 (Merck Sharp & Dohme, published 2024).
